Test results taken from the supplement of paper PMC5998384.

What was measured:
[1] = test system: HeLa Kyoto; assay: solubility change mitosis vs G1/S (difference of NP-40 vs SDS log2 ratios) (log2 ratio difference); higher = more soluble in mitosis
[2] = test system: HeLa Kyoto; assay: melting temperature (median over replicates), in situ; higher = more thermally stable
[3] = test system: HeLa Kyoto; assay: thermal stability score vs G1/S (z-score of summed log2 fold changes over temperatures); higher = more thermally stable than in G1/S
[4] = test system: HeLa Kyoto; assay: solubility in G1/S (NP-40 vs SDS abundance) (log2 ratio); higher = more soluble; conditions: cell cycle stage: G1/S
[5] = cell cycle stage: early G1 (4.5 h after nocodazole release)
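Wherever melting temperature (median over replicates), in situ is given: HeLa Kyoto cells synchronized by double thymidine or nocodazole block, proteins quantified by TMT10plex mass spectrometry, three independent biological replicates.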
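Wherever solubility change mitosis vs G1/S (difference of NP-40 vs SDS log2 ratios) is given: synchronized HeLa Kyoto cells (double thymidine block for G1/S, nocodazole release for mitosis), protein amounts in NP-40 versus SDS lysates quantified by mass spectrometry, three biological replicates.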
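Wherever solubility in G1/S (NP-40 vs SDS abundance) is given: HeLa Kyoto cells arrested at G1/S by double thymidine block, proteins quantified by TMT10plex mass spectrometry in mild NP-40 versus SDS extracts, three biological replicates.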
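Wherever thermal stability score vs G1/S (z-score of summed log2 fold changes over temperatures) is given: synchronized HeLa Kyoto cells, proteins quantified by TMT10plex mass spectrometry, three biological replicates, mitosis taken 0.5 h after nocodazole release, G1/S directly after double thymidine block.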

Row | Sequence | solubility change mitosis (log2) [1] | melting temperature ([2]; cell cycle stage: G1/S) [°C] | melting temperature ([2]; cell cycle stage: mitosis) [°C] | thermal stability score [3, 5] | thermal stability score ([3]; cell cycle stage: mitosis) | solubility in G1/S (log2) [4]
1 | MGPAPAGEQLRGATGEPEVMEPALEGTGKEGKKASSRKRTLAEPPAKGLLQPVKLSRAELYKEPTNEELNRLRETEILFHSSLLRLQVEELLKEVRLSEKKKDRIDAFLREVNQRVVRVPSVPETELTDQAWLPAGVRVPLHQVPYAVKGCFRFLPPAQVTVVGSYLLGTCIRPDINVDVALTMPREILQDKDGLNQRYFRKRALYLAHLAHHLAQDPLFGSVCFSYTNGCHLKPSLLLRPRGKDERLVTVRLHPCPPPDFFRPCRLLPTKNNVRSAWYRGQSPAGDGSPEPPTPRYNTWVLQDTVLESHLQLLSTILSSAQGLKDGVALLKVWLRQRELDKGQGGFTGFLVSMLVVFLVSTRKIHTTMSGYQVLRSVLQFLATTDLTVNGISLCLSSDPSLPALADFHQAFSVVFLDSSGHLNLCADVTASTYHQVQHEARLSMMLLDSRADDGFHLLLMTPKPMIRAFDHVLHLRPLSRLQAACHRLKLWPELQDNGGDYVSAALGPLTTLLEQGLGARLNLLAHSRPPVPEWDISQDPPKHKDSGTLTLGLLLRPEGLTSVLELGPEADQPEAAKFRQFWGSRSELRRFQDGAIREAVVWEAASMSQKRLIPHQVVTHLLALHADIPETCVHYVGGPLDALIQGLKETSSTGEEALVAAVRCYDDLSRLLWGLEGLPLTVSAVQGAHPVLRYTEVFPPTPVRPAFSFYETLRERSSLLPRLDKPCPAYVEPMTVVCHLEGSGQWPQDAEAVQRVRAAFQLRLAELLTQQHGLQCRATATHTDVLKDGFVFRIRVAYQREPQILKEVQSPEGMISLRDTAASLRLERDTRQLPLLTSALHGLQQQHPAFSGVARLAKRWVRAQLLGEGFADESLDLVAAALFLHPEPFTPPSSPQVGFLRFLFLVSTFDWKNNPLFVNLNNELTVEEQVEIRSGFLAARAQLPVMVIVTPQDRKNSVWTQDGPSAQILQQLVVLAAEALPMLEKQLMDPRGPGDIRTVFRPPLDIYDVLIRLSPRHIPRHRQAVDSPAASFCRGLLSQPGPSSLMPVLGYDPPQLYLTQLREAFGDLALFFYDQHGGEVIGVLWKPTSFQPQPFKASSTKGRMVMSRGGELVMVPNVEAILEDFAVLGEGLVQTVEARSERWTV [NOL6] | 0.851 | 52.4 | 51.4 | -1.55 | -1.79 | -1.58
2 | MGPRKKSVKTCIMNNEIPEEMTADETKDYMNQLSHEVLCHIFRYLPLQDIMCMECLSRKLKEAVTLYLRVVRVVDLCAGRWWEYMPSGFTDASFLTLLKKMPDVEQLYGLHPRYLERRRVRGHEAFSIPGVLEALQACPNLVGVETSHLELVESIWTYMPHVHILGKFRNRNGAFPIPPENKLKIPIGAKIQTLHLVGVNVPEIPCIPMLRHLYMKWVRLTKPQPFKDFLCISLRTFVMRNCAGPTNSLKYVPLVTGLASARNLEHLEMVRVPFLGGLIQHVVEDSWRSGGFRNLHTIVLGACKNALEVDLGYLIITAARRLHEVRIQPSLTKDGVFSALKMAELEFPQFETLHLGYVDEFLLQSRMANADLVKYGLADVVENPGIITDIGMKAVNEVFSCIKYLAIYNCPHLHNPYNWISDHSRWTRLVDINLVRCHALKLDSFGQFIELLPSLEFISLDQMFREPPKGCARVGLSAGTGIGVSSALVSNQNSNNDDNNAQNNNANIHDNNHHHPDDSDEENDFRQDLQPGEQQFAADALNEMEDIVQEDGEVVAESGNNTPAHSQAIIPVDVDEEQAGPSGLQRVVKPTSITVHDSESDDEEDSLELQEVWIPKNGTRRYSEREEKTGESVQSRELSVSGKGKTPLRKRYNSHQMGQSKQFPLEESSCEKGCQVTSEQIKADMKAARDIPEKKKNKDVYPSCSSTTASTVGNSSSHNTASQSPDFVRTVNSGGSSEPSPTEVDVSRQCACSPGGSEDSEAMEEGDAESSVCPRCCCHRPQESQRRTSRCSDEERPSTSRACVVNGPDGTRSAFSFRTLPQGGSSGPAHDERTNGSGSGATGEDRRGSSQPESCDVQSNEDYPRRPLTRARSRLSHVLLVSESEVAKTKPRHAMKRKRTADKSTSTSDPVIEDDHVQVLVLKSKNLVGVTMTNCGITDLVLKDCPKMMFIHATRCRVLKHLKVENAPIVNRFDYAQCKKLNMDQVLDQILRMPPERNRIIYLRPMQQVDTLTLEQKLFSGPYPYHICIIHEFSNPPNVRNKVRIRSWMDTIANINQELIKYEFFPEATRSEEDLKKYPKYPWGREIYTLEGVVDGAPYSMISDFPWLRSLRAAEPNSFARYDFEDDEESTIYAPRRKGQLSADICMETIGEEISEMRQMKKGVFQRVVAIFIHYCDVNGEPVEDDYI [FBXO38] | -0.0833 | 51.6 | 51.3 | -0.768 | -0.745 | -0.338
